± gives the uncertainty stated by the source.
Experiment: self-splicing fitness, log relative to wild type (ln ratio); higher = more splicing; Tetrahymena group I intron in knt gene, E. coli kanamycin selection, DiMSum; sequences stand for … in CUCUCU…GGAGGGAAAAGUUAUCAGGCAUGCACCUGGUAGCUAGUCUUUAAACCAAUAGAUUGCAUCGGUUUAAAAGGCAAGACCGUCAAAUUGCGGGAAAGGGGUCAACAGCCGUUCAGUACCAAGUCUCAGGGGAAACUUUGAGAUGGCCUUGCAAAGGGUAUGGUAAUAAGCUGACGGACAUGGUCCUAACCACGCAGCCAAGUCCUAAGUCAACAGAUCUUCUGUUGAUAUGGAUGCAGUUCACAGACUAAAUGUCGGUCGGGGAAGAUGUAUUCUUCUCAUAAGAUAUAGUCGGACCUCUCCUUAAUGGGAGCUAGCGGAUGAAGUGAUGCAACACUGGAGCCGCUGGGAACUAAUUUGUAUGCGAAAGUAUAUUGAUUAGUUUUGGAGUACUCGUGGUCG
How it was run: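 Colonies from six replicate transformations of E. coli BL21(DE3) were pooled and amplicon-sequenced on an Illumina HiSeq 2500. The library placed an intron with all eight P1ex-region nucleotides randomised inside the knt kanamycin-resistance gene on pET-22b(+), and cells grew overnight at 37°C or 30°C on LB agar with or without 25 μg/mL kanamycin (plus 100 μg/mL carbenicillin, 50 μM IPTG, 0.2% rhamnose). Fitness is the DiMSum error-weighted combination of wild-type-normalised replicate fold changes, kanamycin versus none.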

Sequence	self-splicing fitness (ln) (30 °C)	self-splicing fitness (ln) (37 °C)
CUCAAGCAAUAUUACGGCCG	-1.2 ± 0.13	-1.69 ± 0.24
CUCAAGCAAUAUUACGGGGC	-4.64 ± 0.41	-3.31 ± 0.33
CUCAAGCAAUAUUACGGGUC	-4.31 ± 0.17	-2.48 ± 0.12
CUCAAGCAAUAUUACGGUCU	-3.13 ± 0.16	-3.56 ± 0.39
CUCAAGCAAUAUUACGUAAA	-3.37 ± 0.18	-2.48 ± 0.25
CUCAAGCAAUAUUACGUAGU	-3.43 ± 0.17	-1.91 ± 0.14
CUCAAGCAAUAUUACGUGAU	-1.25 ± 0.053	-0.372 ± 0.067
CUCCAGCAAUAUUACGAAAA	-2.78 ± 0.28	-1.89 ± 0.3
CUCCAGCAAUAUUACGAAGC	-3.5 ± 0.23	-2.6 ± 0.32
CUCCAGCAAUAUUACGACUC	-3.66 ± 0.24	-2.24 ± 0.38
CUCCAGCAAUAUUACGAGGG	-3.65 ± 0.17	-2.89 ± 0.25
CUCCAGCAAUAUUACGAUCG	-1.49 ± 0.063	-0.922 ± 0.075
CUCCAGCAAUAUUACGAUGG	-4.58 ± 0.32	-3.19 ± 0.26
CUCCAGCAAUAUUACGCAAG	-3.52 ± 0.26	-1.41 ± 0.18
CUCCAGCAAUAUUACGCACU	-2.56 ± 0.14	-3.09 ± 0.32
CUCCAGCAAUAUUACGCAGC	-2.51 ± 0.15	-2.25 ± 0.49
CUCCAGCAAUAUUACGCAUC	-4.12 ± 0.42	-2.4 ± 0.37
CUCCAGCAAUAUUACGCGCC	-2.7 ± 0.29	-2.05 ± 0.38
CUCCAGCAAUAUUACGCGUA		-2.56 ± 0.25
CUCCAGCAAUAUUACGCGUC	-3.46 ± 0.28	

Sequence	self-splicing fitness (ln) (30 °C)	self-splicing fitness (ln) (37 °C)
CUCCAGCAAUAUUACGCUUU	-2.78 ± 0.19	-2.8 ± 0.26
CUCCAGCAAUAUUACGGAAU	-4.1 ± 0.21	-2.27 ± 0.16
CUCCAGCAAUAUUACGGACA	-0.816 ± 0.14	-0.868 ± 0.15
CUCCAGCAAUAUUACGGCUG	-2.12 ± 0.22	-2.99 ± 0.4
CUCCAGCAAUAUUACGGGAC	-2.79 ± 0.11	-2.17 ± 0.14
CUCCAGCAAUAUUACGGUCU	-4 ± 0.23	-2.31 ± 0.2
CUCCAGCAAUAUUACGUACA	-3.85 ± 0.19	-2.08 ± 0.2
CUCCAGCAAUAUUACGUAGC	-2.49 ± 0.2	-2.36 ± 0.25
CUCCAGCAAUAUUACGUCGC	-4.34 ± 0.23	-2.96 ± 0.23
CUCCAGCAAUAUUACGUGGA	-3.5 ± 0.18	-2.7 ± 0.16
CUCCAGCAAUAUUACGUUGC	-3.98 ± 0.27	-1.77 ± 0.15
CUCGAGCAAUAUUACGAACU	-3.1 ± 0.26	-2.8 ± 0.43
CUCGAGCAAUAUUACGAAGC	-3.7 ± 0.16	-3.28 ± 0.21
CUCGAGCAAUAUUACGAUGG	-1.83 ± 0.083	-1.61 ± 0.1
CUCGAGCAAUAUUACGAUUG	-2.53 ± 0.34	-2.04 ± 0.3
CUCGAGCAAUAUUACGCAUA	-2.34 ± 0.26	
CUCGAGCAAUAUUACGCGAU	-3.25 ± 0.17	-2.96 ± 0.23
CUCGAGCAAUAUUACGCGUG	-3.43 ± 0.26	-2.03 ± 0.19
CUCGAGCAAUAUUACGCGUU	-3.72 ± 0.31	-0.305 ± 0.2

Reference: the supplement of paper PMC7877785
